The DeepSol protein solubility set

Experiment: soluble on expression in E. coli; label from the status in PepcDB or PDB records
For “MSLAWLISEFASVGDVTVRALRYYDKINLLKPSDYTEGGHRLYTKDDLYVLQQIQSFKHLGFSLGEIQNIILQRDIETEVFLRQMHFQREVLLAEQERIAKVLSHMDEMTKKFQKEERVNVALFSSFLQTFIWEKENKEWLEEHFSTESIQAFYNNKELKEKFDRRFMDVIGKLKKYKEEEKDPSHHDVQVTLKEFFHLIEKITDYLDISQSEVVSVIKQSKISMAEFPTLFTNEEEQYIKEAMNKEGHHHHHH”, the “soluble on expression in E. coli” value was “soluble”. With “MSLAYQALYRVFRPQSFQDVVGQEHVTKTLKNAIVQNKTSHAYLFSGPRGTGKTSAAKIFAKAINCEHGHDGEPCNECEICKGTTDGSIPDVLEIDAASNNGVEEIRDIREKVKYAPTVAKYKVYIIDEVHMLSTGAFNALLKTLEEPPKHVIFILATTEPHKLPLTIISRVQRFDFKRITTQDIIGRLKFILEEEKIPYDEKALMIVARAAEGGMRDALSLLDQVISYGSEEVTVEDALEITGSVAQNLLTKLVSAAFDGDAAEAISTLTALLAEGKDPVRLVEDLLVFFRDVLLYQKAPNLEETLERALIDDDFVALAKRADSLKVYEFVKILNTAQQQMRFSNHPGIYVEVALIQLTQAGEGHHHHHH” the “soluble on expression in E. coli” value was “soluble”. For “MSLCAVTLMACNTAPHSLASSLPVPDALLFPQVQPEYKVAPGDLLLIKVFQVDDLERQVRVDNTGRITLPLLGSIEVSNKGAAELETLIANRYRSDYLQDPQVSVFIQEANARRVTVTGAVTEPGTYPLIGSNLTLQQVIAQAKGINTLASLQNVVVFRTVKGQKMLARFDLARIERGKDPDPEIYPGDLVVVYRSDMRLFLRTLVEITPFVMVWRAYREGHHHHHH”, the “soluble on expression in E. coli” value was “soluble”. In the case of “MSLCDQKNDTLQGKQNNMTAFIKKIAASKESEETQRYVGNLNGIEIKLTYYYKGDIVLRQISEHKLLYKTLKANNKEEAQKMLSQVGEAYQGMPGLTERIDYYDSYATEYVDINFTQAKISDLCKLPGSSIDNCSAYYLSMIRSQKLLEESGYHRINEGHHHHHH”, the “soluble on expression in E. coli” value is reported as “soluble”. For “MSLCELSYLNAVVMLKAQRGGNSGLYFGSMTTFITSGGLEISPAGAHIVHAESPEGELLFVSSASQYGEGNAIRGGVPIIAPWFGGLLGLDPAHGWAKRSAWDVTEHDGQIHAEYGRDGLLLDIRANSTKNGFEITLRAYNDTDEARTVQLAFHPYFKVDDVEKIEVRGLDGVDILNRLNNEVETQDGPVTFDGEFDRIALGTPVVRIFDTDRIITIEGDGHDSTVVWNPGESRASTVADIGEGEWRDFVCVEPALLGADQKGVRVAPGQSVTVGMQVSVEKRAEGHHHHHH”, the “soluble on expression in E. coli” value was “soluble”. With “MSLCGIAGLFNCNLPADELRLDQAVAKLTHRGPDDRGIFLDGRFGMGHTRLSIIDLAGGHQPLFSEDRRLALIANGEIYNFIELRSELTAAGFRFQTQSDSEVILHAYLAFGEGFLERIQGMFAFALYDALEGRLILARDRLGIKPLFLARRPDGIAFASEIKALLPLLDQPREIDPQGLAQYFQNQFSTGATTVLRGVERVLPGEAVVVEAGKTTRRFRYWSPLAVRTEELDFDEAAARFDALMERVMVEHMRSDVPFGLFLSGGVDSSLLLALLTRYSGEPIRTFSVGFPGTSLTDELPLAEGLARRFRSRHREIRPGPQDILHSLPLTVWAADDLMRDNASLPTSLLARAAGEELKVVFSGEGGDEVFAGYGRYRTSPLERLFKSLLAPGSGGFRTRGSFRGRWPKTLFGPALLAAAQSARRPVQESWRETPREWSDLQRMQYVDLCHALPDNLLVKADRMLMAWGVEGRVPFLDHRVVEFGLSLPDRLKIEGRQGKLFLKRWGERLVPAEQLYARKEGHHHHHH” the “soluble on expression in E. coli” value was “not soluble”. For “MSLCLPTIRKIAIIGAGPSGLVTAKALLAEKAFDQVTLFERRGSPGGVWNYTSTLSNKLPVPSTNPILTTEPIVGPAALPVYPSPLYRDLQTNTPIELMGYCDQSFKPQTLQFPHRHTIQEYQRIYAQPLLPFIKLATDVLDIEKKDGSWVVTYKGTKAGSPISKDIFDAVSICNGHYEVPYIPNIKGLDEYAKAVPGSVLHSSLFREPELFVGESVLVVGGASSANDLVRHLTPVAKHPIYQSLLGGGDIQNESLQQVPEITKFDPTTREIYLKGGKVLSNIDRVIYCTGYLYSVPFPSLAKLKSPETKLIDDGSHVHNVYQHIFYIPDPTLAFVGLALHVVPFPTSQAQAAFLARVWSGRLKLPSKEEQLKWQDELMFSLSGANNMYHSLDYPKDATYINKLHDWCKQATPVLEEEFPSPYWGEKERSIRENMWSIRAKFFGIEPPKEGHHHHHH”, the “soluble on expression in E. coli” value was “soluble”. With “MSLCLSAQRLGEEPRVNSTGRYSGPMRVLHLASEVFPFSRSGGLGDVLGALPAVQARLGEDAEVTVLSPWYASLQGEPQELWRGEAWGEQAWLGELRQDGVRYLFLGLNEFQRPGLYHPDDVERFCAFGRAALPALDAVGVTPDVLHGHDWQAGLVVAHARLRGLRTAFSVHNLQYQGRWNLHEAAGWTGLPDWTFGPDGVEFFGDLNLMKAGLNFAGHVTTVSPTYAQEITTPQYGEGLEGLLVRLTHEGRLSGILNGLDQDRWNPRTDPDIAAYSDPAGKAGAVKALRQEFGLDDAPILATVSRLADQKGMDLLITALPELVRDWNVVVLGGGDPLLEAALTGWANHPRVAFASGMNEPLAHRIYAGAHAFAMPSRFEPCGLSQLIAMRYGTLPIVRETGGLADTVPPEVGFRFADATAPAFLQACREAQAAFQDPAQWQTRATRAMSLDFSWDGPARQYLELYRGLEGHHHHHH” the “soluble on expression in E. coli” value was “soluble”. For “MSLCQLLGMNCNTPTDIMFSFEGFRRRGGITDHHADGFGIGFFEGKGVRLFHDDKPSVNSPVADLVRAYQIKSENVIAHIRKASQGQTSLANTHPFMREMWGGYWLFAHNGHLIDFFPEQGEFFHPVGTTDSERAFCHILNRLRTRFAARPDDDTLFDAIAGLTHEIRKFGLFNFMLSDGIALFAHASTLLHYIVRQAPFGKEGHHHHHH”, the “soluble on expression in E. coli” value was “not soluble”. In the case of “MSLCWILMASHAQAEPFKIGLLVWSDQIAGQVAMRAGLEAEAAHLQQQARDKNLPSFTLDIKLAGDGPAGVEKQIQQMQAMVDDRVDLIIVQPTDNAALSSPLQAANQAGIPVVAYDQYISGGHLSAFVTSNNYQAGFLDGEYMAHHFADDHTIQIILVEYPYVSSTIDRVDGFFDALNQYKQPYRILRSYQAVEPVQGRAVGQQILQDFPQPGSVDALFTINDGGGLAIVDELEKAGRHELFVATIDGDPNSVARIRKGSIIKIDSAQFCGPIGAEAMRAAYAILTAGKVHEHWLVPVFPITRQSVAHYPGWSGPIPEHYSNPCLTFLCREGHHHHHH”, the “soluble on expression in E. coli” value is reported as “soluble”. In the case of “MSLDEGLLNKVKERGTLLVGLEGTYPPFSFQGDDGKLTGFEVEFAQQLAKHLGVEASLKPTKWDGMLASLDSKRIDVVINQVTISDERKKKYDFSTPYTISGIQALVKKGNEGTIKTADDLKGKKVGVGLGTNYEEWLRQNVQGVDVRTYDDDPTKYQDLRVGRIDAILVDRLAALDLVKKTNDTLAVTGEAFSRQESGVALRKGNEDLLKAVNDAIAEMQKDGTLQALSEKWFGADVTEGHHHHHH”, the “soluble on expression in E. coli” value is reported as “soluble”. For “MSLDHRKRESINDKNKMKVYTTVYAFQSLTQQIGGKYVDVQSIYPDGADLHSYEPTQKDMIDIAKSDLFVYSSHQLDPVAAKITNSMTNNSMKLALAEGLKQSDFIDSKGHDEDHEHHSHHEESNQDPHVWLDPVLNQKFAFMIKEKLIEKDPKHQAYYNKNYKMVNKDIVHIDQQLQSITKHSKRDKVVISHDSLGYLAHRYGFKQQGVKGMNDEEPSQKEILNIVKDIQHSHAPYVLYEQNITSKITDVIKKETDTKPLSFHNLAVLTKEEQNDDSISYQSLMKKNIYVLNRALNNEGHHHHHH”, the “soluble on expression in E. coli” value was “soluble”. In the case of “MSLDIAELHRAGDDIKEMMKSEGYYSEPSKYEAELSDGNITFAYSYPIKAFEKFLGYYDRENRIAFNPSISMRTDFSFCLAACRYRKNGKTDTVVLDGYADNKYYKKAKFALDKFRSEYSINGSFDFYIKRYRRYQKAKGLSESSAVAAAVSRALISNVFGDDAAKDDIFVSRYARLVSGSGTRAAHDGISMWLSYPGMDSRDCVAFKVGKSNENLNYGVFPKYSDVATDNAHSIAVNSVFYGTWVSEKFSNVKRLISDHFDINDLLKIGENDMLRLNSILMSGGLIIQTPDSLRILKEILKFKSKNEGFYFTADTGPSIAIFSFDRSLIDEFRENVNDEYIEGSYDFKGYNNRMRDFIREAQEYFTQTPGEDEEDREGHHHHHH”, the “soluble on expression in E. coli” value is reported as “soluble”. For “MSLDINQIALHQLIKRDEQNLELVLRDSLLEPTETVVEMVAELHRVYSAKNKAYGLFSEESELAQTLRLQRQGEEDFLAFSRAATGRLRDELAKYPFADGGFVLFCHYRYLAVEYLLVAVLSNLSSMRVNENLDINPTHYLDINHADIVARIDLTEWETNPESTRYLTFLKGRVGRKVADFFMDFLGASEGLNAKAQNRGLLQAVDDFTAEAQLDKAERQNVRQQVYSYCNEQLQAGEEIELKSLSKELAGVSEVSFTEFAAEKGYELEESFPADRSTLRQLTKFAGSGGGLTINFDAMLLGERIFWDPATDTLTIKGTPPNLRDQLQRRTSGGNLEHHHHHH”, the “soluble on expression in E. coli” value was “not soluble”. With “MSLDIRRANSADLNALNALEQQLFDGDRISPRQMKRFLHSDHAALFVADAGDQLAGYALLLFHQGTQLSRLYSIAVKPEFRGQRIAQSLVEQCERAALDQGSTTLRLEVREDNTAALKLYEKMGYKTLKLLIHYYDDLCDGRRMQKRLTPQESKVLLPMPLYVQTTPFTCGAACLLMSFACLDKTFEPSRTQEMQLWREATTIFMAAGHGGCSGQGLALAAARRGYHVELWNQSRSTPFIDSVRDPNKKQIIELVHQDFCQQLAEQDVSMIDAPPSQAQLEEWVRKGACVLLLISTYRFDGKKEPHWIVLSGLSDKFFFFHDPHAESEEHVSGSGYIPVGKAALSQIIGFGKQKQIACVVITPRLEGHHHHHH” the “soluble on expression in E. coli” value was “soluble”. For “MSLDLFSVRMRAQKNGKHVSGAERIVKKEELETAVKELLNRPKEFDFMNVKVEKVKDFEVVKFNLKISTYSFKSPEEAREFAVKKLTQEGIKEEVAKKAVEILSKGANPKGGNMRGAVLMDIETGERLEEDKERGVRTIHFDWKDRKKVTEKLLKEGYTLRTVDALALTFKNLFCGVVAELCWSDDPDYVTGYVSGKEIGYVRITPLKEKGDPLGGRVYFVSRKELSEIIECLTQKVVLIELEGHHHHHH”, the “soluble on expression in E. coli” value was “soluble”. In the case of “MSLDLSASRSDGGDPLRPASPRLRSPVSDGGDPLRPASPRLRSPVSDGGDPLRPASPRLRSPLGASRPVVGLTAYLEQVRTGVWDIPAGYLPADYFEGITMAGGVAVLLPPQPVDPESVGCVLDSLHALVITGGYDLDPAAYGQEPHPATDHPRPGRDAWEFALLRGALQRGMPVLGICRGTQVLNVALGGTLHQHLPDILGHSGHRAGNGVFTRLPVHTASGTRLAELIGESADVPCYHHQAIDQVGEGLVVSAVDVDGVIEALELPGDTFVLAVQWHPEKSLDDLRLFKALVDAASGYAGRQSQAEPREGGSHHHHHH”, the “soluble on expression in E. coli” value is reported as “soluble”. In the case of “MSLDNFIAGLPKLELHLHIEGSLEPELMFALGQRNGVALPWPDVASVRAAYEFDCLQSFLDLYYLGASVLITEQDFFDLTWAYLERCAADKVVHVEIFFDPQTHTARGVPFATVLGGIERALQRGEWEFGISWRLIMSFLRHLSEEDAFATLAEATPFLSRIHGIGLDSGEKGNPPSKFARVFARCRELGLPVVAHAGEEGPADYIWQAIRELEVRRIDHGVRCVDDPDLLRYLADTRLPLTVCPLSNTRLKVFDQMAHHNVLALLEQGLCVTINSDDPAYFGGYMNANFHALAHELGASMNQLCRLSLNAVEASWLSLADKARLTREGHHHHHH”, the “soluble on expression in E. coli” value is reported as “soluble”.
